The source of these data is paper PMC3286869 (Journal of Medicinal Chemistry, 2012).

Bridges are numbered along the chain shown (N, C = ends). Where no end group is shown, it is not given here. [ ]: non-standard residue; d: D form. dLys(N3) = [N-]=[N+]=NCCCC[C@@H](N)C(=O)O; Lys(N3) = [N-]=[N+]=NCCCC[C@H](N)C(=O)O; dPra = C#CC[C@@H](N)C(=O)O; Pra = C#CC[C@H](N)C(=O)O

First the molecules themselves.
T1: β-catenin (UniProt P35222 1-781)
T1 sequence (looked up): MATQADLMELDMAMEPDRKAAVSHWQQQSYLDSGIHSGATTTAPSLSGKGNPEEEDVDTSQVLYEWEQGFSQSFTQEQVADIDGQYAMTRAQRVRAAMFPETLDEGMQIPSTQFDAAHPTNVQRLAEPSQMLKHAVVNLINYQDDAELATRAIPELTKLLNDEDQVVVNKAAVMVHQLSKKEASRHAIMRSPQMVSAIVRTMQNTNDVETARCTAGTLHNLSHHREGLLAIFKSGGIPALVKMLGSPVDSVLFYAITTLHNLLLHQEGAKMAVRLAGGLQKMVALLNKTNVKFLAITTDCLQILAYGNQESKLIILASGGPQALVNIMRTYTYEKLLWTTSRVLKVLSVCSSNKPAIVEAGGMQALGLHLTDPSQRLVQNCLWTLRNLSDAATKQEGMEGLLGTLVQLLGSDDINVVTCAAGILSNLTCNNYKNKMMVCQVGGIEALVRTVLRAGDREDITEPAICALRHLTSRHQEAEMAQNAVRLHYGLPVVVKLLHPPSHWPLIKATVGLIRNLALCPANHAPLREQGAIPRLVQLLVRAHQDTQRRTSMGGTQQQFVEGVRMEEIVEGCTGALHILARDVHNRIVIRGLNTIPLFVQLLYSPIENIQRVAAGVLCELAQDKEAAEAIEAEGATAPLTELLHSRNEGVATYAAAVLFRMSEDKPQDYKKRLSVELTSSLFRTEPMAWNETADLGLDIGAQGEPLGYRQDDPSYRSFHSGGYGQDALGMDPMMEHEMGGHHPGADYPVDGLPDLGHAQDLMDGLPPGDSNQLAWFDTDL

The first assay has as its target T1, β-catenin. Put plainly: fluorescence polarisation. (Polarisation of emitted light reports the rotation of a fluorescent probe.)
In the case of LSQEQLEHRERSL[Pra]TLR[dLys(N3)]IQRLLF (triazole 14-18; not fully specified (N-terminus, C-terminus)) [triazole-stapled BCL9 peptide 24 (reverse staple towards the C-terminus)], the Ki came to 560 nM.

For the molecule LSQEQLEHRERSL[Lys(N3)]TLR[dPra]IQRLLF (triazole 14-18; not fully specified (N-terminus, C-terminus)) [triazole-stapled BCL9 peptide 22 (C-terminal stapled peptide)], the Ki turned out to be 260 nM. This Ki is about 2.2-fold lower than that of the molecule before.

LSQEQ[Lys(N3)]EHR[dPra]RSLQTLRDIQRLLF (triazole 6-10; not fully specified (N-terminus, C-terminus)) [triazole-stapled BCL9 peptide 20 (staple closer to the N-terminus)] returned a Ki of 410 nM.

Take LSQEQLEHRERSL[Lys(N3)]TLR[dPra]IQRLLF (not fully specified (N-terminus, C-terminus)) [BCL9 peptide 21 (linkers closer to the C-terminus, linear)]: the affinity, expressed as Ki, was 2010 nM. This Ki is about 4.9-fold higher than that of the molecule before.

In the case of LSQEQLEHRERSL[Pra]TLR[dLys(N3)]IQRLLF (not fully specified (N-terminus, C-terminus)) [BCL9 peptide 23 (reverse linkers towards the C-terminus, linear)], the Ki was found to be 6660 nM.

LSQEQ[Lys(N3)]EHR[dPra]RSLQTLRDIQRLLF (not fully specified (N-terminus, C-terminus)) [BCL9 peptide 19 (linkers closer to the N-terminus, linear)] showed a Ki of 1970 nM.

For another assay, the target named is T1, β-catenin. Put plainly: fluorescence polarisation. The source holds these as a separate data set.
In turn, LSQEQLEHR[Pra]RSL[dLys(N3)]TLRDIQRLLF (triazole 10-14; not fully specified (N-terminus, C-terminus)) [triazole-stapled BCL9 peptide 17 (reversed staple, D-Nle(εN3) at i+4)] displayed a Ki of 1170 nM.

On to LSQEQLEHR[Lys(N3)]RSL[dPra]TLRDIQRLLF (not fully specified (N-terminus, C-terminus)) [BCL9 peptide 4 (linear precursor of 12)], for which the Ki turned out to be 4900 nM.

For the molecule LSQEQLEHR[Pra]RSL[dLys(N3)]TLRDIQRLLF (not fully specified (N-terminus, C-terminus)) [BCL9 peptide 9 (linear precursor of 17)], the affinity corresponds to a Ki of 11000 nM.

On to Ac-LSQEQLEHRERSLQTLRDIQRMLF-NH2 [BCL9 24-mer peptide 1], for which the Ki was found to be 600 nM.

Ac-LSQEQLEHRERSLQTLRDIQRLLF-NH2 [BCL9 24-mer peptide 2 (M372L)]: the Ki stood at 940 nM.

In turn, LSQEQLEHR[dPra]RSL[Lys(N3)]TLRDIQRLLF (triazole 10-14; not fully specified (N-terminus, C-terminus)) [triazole-stapled BCL9 peptide 18 (reversed staple, D-Pra at position 360)] yielded a Ki of 4300 nM.

Consider LSQEQLEHR[Lys(N3)]RSL[Pra]TLRDIQRLLF (not fully specified (N-terminus, C-terminus)) [BCL9 peptide 3 (linear precursor of 11)], for which the affinity corresponds to a Ki of 1400 nM.

Turning to LSQEQLEHR[Pra]RSL[Lys(N3)]TLRDIQRLLF (triazole 10-14; not fully specified (N-terminus, C-terminus)) [triazole-stapled BCL9 peptide 16 (reversed linker, L-Pra and L-Nle(εN3))], the affinity corresponds to a Ki of 770 nM.

For LSQEQLEHR[Lys(N3)]RSL[Pra]TLRDIQRLLF (triazole 10-14; not fully specified (N-terminus, C-terminus)) [triazole-stapled BCL9 peptide 11], the affinity, expressed as Ki, was 330 nM.

LSQEQLEHR[Lys(N3)]RSL[dPra]TLRDIQRLLF (triazole 10-14; not fully specified (N-terminus, C-terminus)) [triazole-stapled BCL9 peptide 12] had a Ki of 130 nM.

In general, Ki refers to the equilibrium dissociation constant of an inhibitor or competing ligand from its target. Read a low Ki as a stronger hold on the target.
